Our source for the koff values is publication PMC6224509 (2018).

Holding throughout (assay): SPR; 37°C
(In general: SPR reads the build-up and loss of mass on a sensor chip optically.)

In assay [1] the target is human 4-1BB residues 24–186 I132R, His–Avi (human, UniProt Q07011 24-186, I132R).
Assay [2] deals with human 4-1BB residues 24–186, wild type, His–Avi (human, UniProt Q07011 24-186).
The target of assay [3] is human 4-1BB residues 24–186 M101R, His–Avi (human, UniProt Q07011 24-186, M101R).
Chain of human 4-1BB residues 24–186 M101R, His–Avi (Q07011 24-186 M101R): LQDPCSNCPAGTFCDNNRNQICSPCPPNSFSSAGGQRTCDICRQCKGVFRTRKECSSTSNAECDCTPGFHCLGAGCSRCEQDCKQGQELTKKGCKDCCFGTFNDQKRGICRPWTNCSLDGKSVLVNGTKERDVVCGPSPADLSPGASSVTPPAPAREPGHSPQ

Chain of human 4-1BB residues 24–186 I132R, His–Avi (Q07011 24-186 I132R): as the sequence (Q07011 24-186 M101R) above, with R78M, I109R counted along it
Chain of human 4-1BB residues 24–186, wild type, His–Avi (Q07011 24-186): as the sequence (Q07011 24-186 M101R) above, with R78M counted along it

B1: urelumab (fully human IgG4 mAb) (antibody, V domains shown)
VH: QVQLQQWGAGLLKPSETLSLTCAVYGGSFSGYYWSWIRQSPEKGLEWIGEINHGGYVTYNPSLESRVTISVDTSKNQFSLKLSSVTAADTAVYYCARDYGPGNYDWYFDLWGRGTLVTVSS
VL: EIVLTQSPATLSLSPGERATLSCRASQSVSSYLAWYQQKPGQAPRLLIYDASNRATGIPARFSGSGSGTDFTLTISSLEPEDFAVYYCQQRSNWPPALTFGGGTKVEIK
What is called koff is the first-order rate constant of dissociation. Low readings indicate slow dissociation, high ones fast dissociation. On to B1, for which the koff worked out at 0.012 s⁻¹ in assay [1], 0.014 s⁻¹ in assay [2] and 0.0095 s⁻¹ in assay [3].
